The values that follow come from PMC11865472, “Structures of TGF-β with betaglycan and signaling receptors reveal mechanisms of complex assembly and signaling” (Nature Communications, 2025).

The target in the assay is T1, inhibin A (InhA), mature heterodimer, unlabelled (UniProt P05111 233-366; P08476 311-426).
T1 construct: inhibin α subunit, residues 233-366 of NP_002182.1; inhibin βA subunit, residues 311-426 of NP_002183.1; The His and Strep tags stood on the two chains of the pro-inhibin; source: expi293F, secreted as pro-inhibin, purified by His and Strep tags; mature dimer purified on C18 RPC; copies: 1 + 1
T1 sequence (looked up) 1: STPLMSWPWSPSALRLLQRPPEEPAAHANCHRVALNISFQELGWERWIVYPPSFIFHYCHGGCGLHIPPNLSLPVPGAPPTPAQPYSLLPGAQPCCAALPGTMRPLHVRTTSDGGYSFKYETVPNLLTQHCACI
T1 sequence (looked up) 2: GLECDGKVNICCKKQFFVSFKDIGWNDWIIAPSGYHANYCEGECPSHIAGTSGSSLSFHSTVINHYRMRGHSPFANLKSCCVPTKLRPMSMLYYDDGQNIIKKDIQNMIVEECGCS
Description: NMR titration; methyl 1H-13C SOFAST-HMQC of labelled BG_ZP-C (15-25 µM) with growth factors; 25 mM 2H-glycine pH 11.0 or 25 mM phosphate pH 6.0; 37 °C. Conditions: both partners purified.

B1: rat betaglycan ZP-C domain, bacterially expressed, isotopically labelled (domain or fragment, UniProt P26342 590-757, looked up)
chain: GNATFNMELYNTDLFLVPSPGVFSVAENEHVYVEVSVTKADQDLGFAIQTCFLSPYSNPDRMSDYTIIENICPKDDSVKFYSSKRVHFPIPHAEVDKKRFSFLFKSVFNTSLLFLHCELTLCSRKKGSLKLPRCVTPDDACTSLDATMIWTMMQNKKTFTKPLAVVLQ
modifications: 2H, 13C-methyl Isoleucine, Leucine, Valine (ILV) labeled
notes: betaglycan (TGFBR3), rat, residues 590-757 of NCBI NP_058952; A thrombin site lies between the Trx-His6 cassette and the domain; also called 13C-methyl-Ile BG_(ZP-C); ILV labeled BG_(ZP-C)
On to B1, for which the binding result is “binds”.
